Measurements as given in US20230272029A1, “CO-AGONISTS AT GLP-1 AND GIP RECEPTORS SUITABLE FOR ORAL DELIVERY” (Novo Nordisk A/S, priority 2020, published 2023).
Starred links: 1 amine or outer side, 2 acyl side, 3 side chain; linkers in the order of their positions; H or OH if unused. Non-standard residues stand in square brackets, D forms with d. Groups on a side chain read outwards from the residue. No end group written: not given here. *: point of attachment. C18 diacid = O=C(O)CCCCCCCCCCCCCCCCC(=O)*; γGlu = O=C(O)[C@H](CCC(=O)[*:2])N[*:1]; εLys = N[C@@H](CCCCN[*:1])C(=O)[*:2]; Aib = CC(C)(N)C(=O)O

Experiments:
human GLP-1 receptor = human GLP-1 receptor (human, UniProt P43220 24-463); assay: cell-based or functional assay
human GIP receptor = biological target: T1, human GIP receptor (human, UniProt P48546 22-466); assay: cell-based or functional assay
T1 sequence (looked up): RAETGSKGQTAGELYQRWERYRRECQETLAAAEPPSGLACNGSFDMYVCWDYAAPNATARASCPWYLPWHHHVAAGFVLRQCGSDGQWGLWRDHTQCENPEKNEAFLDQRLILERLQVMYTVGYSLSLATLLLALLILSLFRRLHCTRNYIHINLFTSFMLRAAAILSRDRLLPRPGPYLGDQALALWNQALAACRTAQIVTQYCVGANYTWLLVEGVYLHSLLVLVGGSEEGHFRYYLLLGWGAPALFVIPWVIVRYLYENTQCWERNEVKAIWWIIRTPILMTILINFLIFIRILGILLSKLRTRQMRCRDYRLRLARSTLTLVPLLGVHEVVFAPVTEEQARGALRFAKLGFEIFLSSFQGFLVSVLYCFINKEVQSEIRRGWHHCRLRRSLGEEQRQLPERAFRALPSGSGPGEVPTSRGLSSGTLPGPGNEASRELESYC

B1: Compound No. 42 (peptide)
peptide: Y[Aib]EGTFTSDYSIYLEEQAAREFINWLLAGGPSK([εLys-εLys-γGlu-C18 diacid])GAPPPS-OH
modifications: N-terminus assumed
SMILES: CC[C@H](C)[C@H](NC(=O)[C@H](Cc1ccccc1)NC(=O)[C@H](CCC(=O)O)NC(=O)[C@H](CCCNC(=N)N)NC(=O)[C@H](C)NC(=O)[C@H](C)NC(=O)[C@H](CCC(N)=O)NC(=O)[C@H](CCC(=O)O)NC(=O)[C@H](CCC(=O)O)NC(=O)[C@H](CC(C)C)NC(=O)[C@H](Cc1ccc(O)cc1)NC(=O)[C@@H](NC(=O)[C@H](CO)NC(=O)[C@H](Cc1ccc(O)cc1)NC(=O)[C@H](CC(=O)O)NC(=O)[C@H](CO)NC(=O)[C@@H](NC(=O)[C@H](Cc1ccccc1)NC(=O)[C@@H](NC(=O)CNC(=O)[C@H](CCC(=O)O)NC(=O)C(C)(C)NC(=O)[C@@H](N)Cc1ccc(O)cc1)[C@@H](C)O)[C@@H](C)O)[C@@H](C)CC)C(=O)N[C@@H](CC(N)=O)C(=O)N[C@@H](Cc1c[nH]c2ccccc12)C(=O)N[C@@H](CC(C)C)C(=O)N[C@@H](CC(C)C)C(=O)N[C@@H](C)C(=O)NCC(=O)NCC(=O)N1CCC[C@H]1C(=O)N[C@@H](CO)C(=O)N[C@@H](CCCCNC(=O)[C@@H](N)CCCCNC(=O)[C@@H](N)CCCCNC(=O)CC[C@H](NC(=O)CCCCCCCCCCCCCCCCC(=O)O)C(=O)O)C(=O)NCC(=O)N[C@@H](C)C(=O)N1CCC[C@H]1C(=O)N1CCC[C@H]1C(=O)N1CCC[C@H]1C(=O)N[C@@H](CO)C(=O)O
hGLP-1R, CRE Luc 0% HSA EC50 (pM) (human GLP-1 receptor): 2.3 pM | hGLP-1R, CRE Luc 1% HSA EC50 (pM) (human GLP-1 receptor): 83.5 pM | hGIPR, CRE Luc 0% HSA EC50 (pM) (human GIP receptor): 5.9 pM | hGIPR, CRE Luc 1% HSA EC50 (pM) (human GIP receptor): 306 pM

B2: Compound No. 40 (peptide)
peptide: Y[Aib]EGTFTSDYSK([εLys-εLys-γGlu-C18 diacid])LLEEQAAREFIEWLLAGGPSSGAPPPS-OH
modifications: N-terminus assumed
SMILES: CC[C@H](C)[C@H](NC(=O)[C@H](Cc1ccccc1)NC(=O)[C@H](CCC(=O)O)NC(=O)[C@H](CCCNC(=N)N)NC(=O)[C@H](C)NC(=O)[C@H](C)NC(=O)[C@H](CCC(N)=O)NC(=O)[C@H](CCC(=O)O)NC(=O)[C@H](CCC(=O)O)NC(=O)[C@H](CC(C)C)NC(=O)[C@H](CC(C)C)NC(=O)[C@H](CCCCNC(=O)[C@@H](N)CCCCNC(=O)[C@@H](N)CCCCNC(=O)CC[C@H](NC(=O)CCCCCCCCCCCCCCCCC(=O)O)C(=O)O)NC(=O)[C@H](CO)NC(=O)[C@H](Cc1ccc(O)cc1)NC(=O)[C@H](CC(=O)O)NC(=O)[C@H](CO)NC(=O)[C@@H](NC(=O)[C@H](Cc1ccccc1)NC(=O)[C@@H](NC(=O)CNC(=O)[C@H](CCC(=O)O)NC(=O)C(C)(C)NC(=O)[C@@H](N)Cc1ccc(O)cc1)[C@@H](C)O)[C@@H](C)O)C(=O)N[C@@H](CCC(=O)O)C(=O)N[C@@H](Cc1c[nH]c2ccccc12)C(=O)N[C@@H](CC(C)C)C(=O)N[C@@H](CC(C)C)C(=O)N[C@@H](C)C(=O)NCC(=O)NCC(=O)N1CCC[C@H]1C(=O)N[C@@H](CO)C(=O)N[C@@H](CO)C(=O)NCC(=O)N[C@@H](C)C(=O)N1CCC[C@H]1C(=O)N1CCC[C@H]1C(=O)N1CCC[C@H]1C(=O)N[C@@H](CO)C(=O)O
hGLP-1R, CRE Luc 0% HSA EC50 (pM) (human GLP-1 receptor): 6.4 pM | hGLP-1R, CRE Luc 1% HSA EC50 (pM) (human GLP-1 receptor): 334 pM | hGIPR, CRE Luc 0% HSA EC50 (pM) (human GIP receptor): 9.5 pM | hGIPR, CRE Luc 1% HSA EC50 (pM) (human GIP receptor): 501 pM
